According to patent US7524668:

Biological target: recombinant soluble human beta-secretase from CHO-K1 cells (Hu_Asp-2LdeltaTM(His)6) (UniProt P56817)
Sequence (P56817 other isoform, or with tags, fused parts or gaps mutant): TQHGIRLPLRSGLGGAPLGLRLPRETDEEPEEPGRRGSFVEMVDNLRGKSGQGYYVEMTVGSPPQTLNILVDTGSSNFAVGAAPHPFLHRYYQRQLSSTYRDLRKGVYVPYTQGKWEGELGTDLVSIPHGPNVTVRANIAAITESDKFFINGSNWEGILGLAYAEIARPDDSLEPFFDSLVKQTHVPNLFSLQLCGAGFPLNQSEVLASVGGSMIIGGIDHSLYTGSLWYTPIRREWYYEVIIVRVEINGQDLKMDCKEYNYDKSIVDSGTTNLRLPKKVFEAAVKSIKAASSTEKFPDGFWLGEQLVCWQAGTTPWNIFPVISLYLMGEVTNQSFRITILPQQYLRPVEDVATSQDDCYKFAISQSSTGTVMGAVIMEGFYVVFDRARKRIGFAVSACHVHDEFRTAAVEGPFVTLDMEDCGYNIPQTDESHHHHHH

## HIV-1 protease
  cleavage of the F39-V40 bond (N-terminal sequence after incubation; pH 5.7, 0.5 M urea, 5% HIV protease, 1 hour at 37 C): nearly 100% cleavage of the F^39-V^40 bond occurred
